Test results reported in patent US20150037339A1 (Regeneron, published 2015).

How the values were obtained:
[1] = target: T1, Activin AC (human, UniProt P55103 237-352); assay: SPR (Biacore), mAb captured on anti-Fc, Activin AC injected, 37 C
T1 construct: Heterodimer of one betaA and one betaC subunit; bought (R&D Systems #4879-AC)
T1 sequence 1: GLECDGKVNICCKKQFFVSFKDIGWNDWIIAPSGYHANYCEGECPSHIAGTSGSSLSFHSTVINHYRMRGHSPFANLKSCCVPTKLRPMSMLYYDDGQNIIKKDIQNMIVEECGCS
T1 sequence 2: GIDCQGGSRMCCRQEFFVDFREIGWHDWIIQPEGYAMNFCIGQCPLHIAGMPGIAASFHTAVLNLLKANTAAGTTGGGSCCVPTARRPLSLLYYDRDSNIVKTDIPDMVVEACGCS
Description: (§1) Antibody-antigen association was monitored for 240 seconds while dissociation in buffer was monitored for 600 seconds. Kinetic association and dissociation rate constants were determined by processing and fitting the data using Scrubber software version 2.0c. Binding equilibrium dissociation constants (KD) and dissociative half-lives (t_{1/2}) were then calculated from the kinetic rate constants as: KD (M)=kd/kₐ and t_{1/2} (min)=[ln 2/(60*kd)]. (NB=no binding observed under the conditions used; NT=not tested).

[2] = target: T2, Activin AB (human, UniProt P08476 311-426; P09529 293-407); assay: SPR (Biacore), mAb captured on anti-Fc, Activin AB injected, 25 C
T2 construct: Heterodimer of one betaA and one betaB subunit; bought (R&D Systems #1006-AB-005 / #1066-AB)
T2 chain 1: T1 sequence 1
T2 chain 2: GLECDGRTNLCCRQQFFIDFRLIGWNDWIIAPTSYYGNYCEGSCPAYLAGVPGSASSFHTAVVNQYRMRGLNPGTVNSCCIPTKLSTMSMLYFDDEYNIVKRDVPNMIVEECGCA
Description: as §1

[3] = target: T1, Activin AC; assay: cell-based or functional assay
[4] = target: T3, Activin A (human, UniProt P08476 311-426); assay: cell-based or functional assay
T3 sequence: T1 sequence 1

[5] = target: T4, Activin B (human, UniProt P09529 293-407); assay: cell-based or functional assay
T4 chain: T2 chain 2

[6] = target: T2, Activin AB; assay: cell-based or functional assay
[7] = target: T1, Activin AC; assay: SPR (Biacore), mAb captured on anti-Fc, Activin AC injected, 25 C
Description: as §1

[8] = target: T2, Activin AB; assay: SPR (Biacore), mAb captured on anti-Fc, Activin AB injected, 37 C
Description: as §1

[9] = target: T5, Activin A (homodimer of two inhibin βA subunits; R&D Systems, #338-AC) (human, UniProt P08476 311-426); assay: SPR blocking: 5 nM Activin A + 0.94 nM binder over hActRIIA-hFc surface
T5 construct: Bought protein; also called inhibin-βA dimer
T5 sequence: T1 sequence 1
Description: (§2) The binding signal (RU) was measured at 150 seconds after the start of the injection, and this signal was subtracted by the measured RU value for a negative control reference surface to determine the specific binding signal.

[10] = target: T5, Activin A (homodimer of two inhibin βA …); assay: SPR blocking: 5 nM Activin A + 0.94 nM binder over hActRIIB-hFc (Control 4) surface
[11] = target: T5, Activin A (homodimer of two inhibin βA …); assay: SPR blocking: 5 nM Activin A + 30 nM binder over Follistatin-288 surface
Description: as §2

[12] = target: T5, Activin A (homodimer of two inhibin βA …); assay: SPR blocking: 5 nM Activin A + 60 nM binder over Follistatin-288 surface
Description: as §2

[13] = target: T5, Activin A (homodimer of two inhibin βA …); assay: SPR blocking: 5 nM Activin A + 0.94 nM binder over Follistatin-288 surface
Description: as §2

[14] = target: T5, Activin A (homodimer of two inhibin βA …); assay: SPR blocking: 5 nM Activin A + 15 nM binder over hActRIIB-hFc (Control 4) surface
[15] = target: T5, Activin A (homodimer of two inhibin βA …); assay: SPR blocking: 5 nM Activin A + 1.88 nM binder over Follistatin-288 surface
Description: as §2

[16] = target: T5, Activin A (homodimer of two inhibin βA …); assay: SPR blocking: 5 nM Activin A + 1.88 nM binder over hActRIIA-hFc surface
Description: as §2

[17] = target: T5, Activin A (homodimer of two inhibin βA …); assay: SPR blocking: 5 nM Activin A + 0 nM binder over Follistatin-288 surface
Description: as §2

[18] = target: T5, Activin A (homodimer of two inhibin βA …); assay: SPR blocking: 5 nM Activin A + 3.75 nM binder over hActRIIA-hFc surface
Description: as §2

[19] = target: T5, Activin A (homodimer of two inhibin βA …); assay: SPR blocking: 5 nM Activin A + 7.50 nM binder over hActRIIB-hFc (Control 4) surface
[20] = target: T5, Activin A (homodimer of two inhibin βA …); assay: SPR blocking: 5 nM Activin A + 0.00 nM binder over hActRIIA-hFc surface
Description: as §2

[21] = target: T5, Activin A (homodimer of two inhibin βA …); assay: SPR blocking: 5 nM Activin A + 60 nM binder over hActRIIA-hFc surface
Description: as §2

[22] = target: T5, Activin A (homodimer of two inhibin βA …); assay: SPR blocking: 5 nM Activin A + 7.5 nM binder over Follistatin-288 surface
Description: as §2

[23] = target: T5, Activin A (homodimer of two inhibin βA …); assay: SPR blocking: 5 nM Activin A + 7.50 nM binder over hActRIIA-hFc surface
Description: as §2

[24] = target: T5, Activin A (homodimer of two inhibin βA …); assay: SPR blocking: 5 nM Activin A + 60 nM binder over hActRIIB-hFc (Control 4) surface
Description: as §2

[25] = target: T5, Activin A (homodimer of two inhibin βA …); assay: SPR blocking: 5 nM Activin A + 0.00 nM binder over hActRIIB-hFc (Control 4) surface
Description: as §2

[26] = target: T5, Activin A (homodimer of two inhibin βA …); assay: SPR blocking: 5 nM Activin A + 30 nM binder over hActRIIA-hFc surface
Description: as §2

[27] = target: T5, Activin A (homodimer of two inhibin βA …); assay: SPR blocking: 5 nM Activin A + 15 nM binder over hActRIIA-hFc surface
Description: as §2

[28] = target: T5, Activin A (homodimer of two inhibin βA …); assay: SPR blocking: 5 nM Activin A + 15 nM binder over Follistatin-288 surface
Description: as §2

[29] = target: T5, Activin A (homodimer of two inhibin βA …); assay: SPR blocking: 5 nM Activin A + 3.75 nM binder over hActRIIB-hFc (Control 4) surface
Description: as §2

[30] = target: T5, Activin A (homodimer of two inhibin βA …); assay: SPR blocking: 5 nM Activin A + 1.88 nM binder over hActRIIB-hFc (Control 4) surface
Description: as §2

[31] = target: T5, Activin A (homodimer of two inhibin βA …); assay: SPR blocking: 5 nM Activin A + 30 nM binder over hActRIIB-hFc (Control 4) surface
Description: as §2

[32] = target: T5, Activin A (homodimer of two inhibin βA …); assay: SPR blocking: 5 nM Activin A + 3.75 nM binder over Follistatin-288 surface
Description: as §2

B1: H4H10440P2 (antibody, human IgG4, V domains shown)
VH: EVQLVESGGGVVQPGGSLRLSCAASTFTFDDFAMHWVRQAPGKGLEWVSLITGDGGSTYYADPVKGRFTISRDNSKNSLYLQMNSLRTEDTALYYCVKDWWIAARPDYYYYGMDVWGQGTTVTVSS
VL: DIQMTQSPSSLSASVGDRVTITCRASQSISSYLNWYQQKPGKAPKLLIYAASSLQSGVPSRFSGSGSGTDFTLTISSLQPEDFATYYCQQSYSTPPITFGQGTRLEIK
50 nM Ag Bound (RU) [1]: 13.3 RU
Kd [1]: 1.05 nM
koff [1]: 0.000755 s⁻¹
kon [1]: 718000 M⁻¹ s⁻¹
t1/2 [1]: 15.3 min
50 nM Ag Bound (RU) [2]: 15.5 RU
Kd [2]: 0.177 nM
koff [2]: 0.000526 s⁻¹
kon [2]: 2.97e+06 M⁻¹ s⁻¹
t1/2 [2]: 22 min
IC50 [M], inhibition of 4 nM Activin AC in A204/CAGAx12-Luc Smad2/3-luciferase bioassay [3]: 7.5e-10 M
IC50 [M], inhibition of 100 pM Activin A in A204/CAGAx12-Luc Smad2/3-luciferase bioassay [4]: 2.8e-10 M
IC50 [M], inhibition of 50 pM Activin B in A204/CAGAx12-Luc Smad2/3-luciferase bioassay [5]: 5.2e-09 M
IC50 [M], inhibition of 30 pM Activin AB in A204/CAGAx12-Luc Smad2/3-luciferase bioassay [6]: 4.3e-10 M
50 nM Ag Bound (RU) [7]: 11.8 RU
Kd [7]: 0.442 nM
koff [7]: 0.000227 s⁻¹
kon [7]: 513000 M⁻¹ s⁻¹
t1/2 [7]: 50.8 min
50 nM Ag Bound (RU) [8]: 17.7 RU
Kd [8]: 0.314 nM
koff [8]: 0.00163 s⁻¹
kon [8]: 5.2e+06 M⁻¹ s⁻¹
t1/2 [8]: 7.1 min

B2: H4H10423P (antibody, human IgG4, V domains shown)
VH: QVQLQQSGPGLLKPSQTLSLTCAISGDSVSSNSAAWSWIRQSPSRGLEWLGRTYYRANWFNDYALSVKSRITINPVTSTNHFSLQLHSVTPEDTAVYYCAREGALGYYFDSWGQGTLVTVSS
VL: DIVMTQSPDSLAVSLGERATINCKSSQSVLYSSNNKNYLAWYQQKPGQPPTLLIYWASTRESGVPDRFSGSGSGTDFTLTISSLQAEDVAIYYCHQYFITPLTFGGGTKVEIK
notes: H4H prefix means human IgG4 Fc
% bound RU w/no inhibitor [9]: 112%
% bound RU w/no inhibitor [10]: 93%
% bound RU w/no inhibitor [11]: 94%
% bound RU w/no inhibitor [12]: 93%
% bound RU w/no inhibitor [13]: 120%
% bound RU w/no inhibitor [14]: 42%
% bound RU w/no inhibitor [15]: 122%
% bound RU w/no inhibitor [16]: 114%
% bound RU w/no inhibitor [17]: 100%
% bound RU w/no inhibitor [18]: 111%
% bound RU w/no inhibitor [19]: 42%
% bound RU w/no inhibitor [20]: 100%
% bound RU w/no inhibitor [21]: 116%
% bound RU w/no inhibitor [22]: 97%
% bound RU w/no inhibitor [23]: 110%
% bound RU w/no inhibitor [24]: 41%
% bound RU w/no inhibitor [25]: 100%
% bound RU w/no inhibitor [26]: 114%
% bound RU w/no inhibitor [27]: 112%
% bound RU w/no inhibitor [28]: 96%
% bound RU w/no inhibitor [29]: 47%
% bound RU w/no inhibitor [30]: 78%
% bound RU w/no inhibitor [31]: 41%
% bound RU w/no inhibitor [32]: 103%

B3: H4H10433P2 (antibody, human IgG4, V domains shown)
VH: EVQLVESGGGLVQAGRSLRLSCEASGFTFDDYGMHWVRQGPGKGLEWVSGISWNSGNIDYADSVKGRFTISRDNAKTSLYLQMNSLKTDDTALYFCAKDAVGFNWNYFLFDYWGQGTLVTVSS
VL: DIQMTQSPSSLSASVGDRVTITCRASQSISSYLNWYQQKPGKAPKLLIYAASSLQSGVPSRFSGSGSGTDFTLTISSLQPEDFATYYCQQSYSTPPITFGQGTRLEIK
IC50 [M], inhibition of 100 pM Activin A in A204/CAGAx12-Luc Smad2/3-luciferase bioassay [4]: 1.5e-10 M
IC50 [M], inhibition of 50 pM Activin B in A204/CAGAx12-Luc Smad2/3-luciferase bioassay [5]: 1e-07 M
